Reference: article PMC11449445, “Fission yeast Duc1 links to ER–PM contact sites and influences PM lipid composition and cytokinetic ring anchoring” (Journal of Cell Science, 2024)

Key:
His6–Scs2(1–127) [1] = biological target: T1, His6–Scs2(1–127) (Schizosaccharomyces pombe (strain 972 / …, UniProt O60119)); assay: pull-down (bead-bound His6-Scs2, Coomassie SDS-PAGE)
T1 chain: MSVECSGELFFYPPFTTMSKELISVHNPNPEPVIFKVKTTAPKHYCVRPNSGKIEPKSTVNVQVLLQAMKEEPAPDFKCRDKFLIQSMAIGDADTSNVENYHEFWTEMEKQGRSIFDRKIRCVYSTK

His6–Scs2(1–127) [2] = biological target: T2, His6–Scs2(1–127) (S. pombe, UniProt O60119 1-127); assay: pull-down; bead-bound His6–Scs2(1–127) (2–3 µg) incubated with 10 µg GST or GST–Duc1(351–380) in 500 µl 20 mM Tris-HCl pH 7.4, 150 mM NaCl, 0.1% NP-40, 30 min at 4°C; three washes; SDS-PAGE, Coomassie blue; conditions: both partners purified
T2 construct: Scs2 (VAMP-associated protein, VAP), S. pombe, residues 1-127 (MSP domain), amplified from genomic DNA and cloned into pET15b; Cloned into the NdeI and BamHI sites of pET15b; also called Scs2 MSP domain; His-tagged version of the Scs2 MSP domain
T2 sequence (looked up): T1 chain

binding result (His6–Scs2(1–127) [1]): binds
binding result (His6–Scs2(1–127) [2]): binds
Binder: GKDVYKHGISNVPDDENEDDLQRYFTALEM (domain or fragment, S. pombe, UniProt O74504 351-380, looked up) [GST–Duc1(351–380)]
